This passage reports protein production results from a protein production outcome set (Wang et al. 2014).

The data set can be described thus: label from the status in PepcDB records.

For “MSKPPPKPVKPGQVKVFRALYTFEPRTPDELYFEEGDIIYITDMSDTSWWKGTCKGRTGLIPSNYVAEQAESIDNPLHEAAKRGNLSWLRECLDNRVGVNGLDKAGSTALYWACHGGHKDIVEVLFTQPNVELNQQNKLGDTALHAAAWKGYADIVQLLLAKGARTDLRNNEKKLALDMATNAACASLLKKKQQGTDGARTLSNAEDYLDDEDSD”, the protein production result is on record as “failed”.

Take “MSKQLLALNIDGALLRSNGKIHQATKDAIEYVKKKGIYVTLVTNRHFRSAQKIAKSLKLDAKLITHSGAYIAEKIDAPFFEKRISDDHTFNIVQVLESYQCNIRLLHEKYSIGNKKKVNSNLLGKALIHPSDPIFYPVQFVESLSDLLMDEPVSAPVIEVYTEHDIQHDITETITKAFPAVDVIRVNDEKLNIVPKGVSKEAGLALVASELGLSMDDVVAIGHQYDDLPMIELAGLGVAMGNAVPEIKRKADWVTRSNDEQGVAYMMKEYFRMQQRKGFLDKFHMKRV”: the protein production entry is on record as “failed”.

For “MSKRDYYQVLGVPRTASEDDLKKAYRRCAMKYHPDRNPGDAAAEAAFKECKEAYEVLADTKKRKLYDTHGHAAFEHGVGSGNTPDMNDIFGDIFGNIFGGARASRRGADVGYMVELDLEEAVAGVERQIQIPTLVECTHCHGSGSEDGHVETCGTCRGSGQVRIQRGIFAMQQTCPHCGGRGVIIRNPCKVCNGAGRVEDHKTLSVKIPAGVDNGDRIRLSGEGEQGPDGVPPGDLYVEVRVREHPIFQRDGDDLHCEVPVRISQAALGDIVRVATLDGEAEIRIPAETQSGKLFRLRGKGVRSVRSRTEGDLYCRIVVETPVNLTAEQRKLLEQFEMTFAGEDARKHSPKSATFLDGVKSFWDRMTS”, the protein production result is recorded as “failed”.

On to “MSKREDEGCARKRRTEAGQRSEDCMNPNSVVISAFKVFQQELDTRYDKYERLVKISRDVTIESKRTIFLLHRVASVPDVEEILNEAEVKLDGVRQKIGQIAEELRGEDLHQFHRAFTPGIQEYVEAVSFHHFIRHRSLISLEEINARLVFIRDNNKAVGEGTFSSPCVLTFQITPTDYLLGVADLTGELMRMCISSVGNGDMDTPFQLSGFLRQIHDGFSLIGNTGPYEVSKKLHALRQSLGKVEDACYTLRVRGSEIPKHMLADVFSSRAAHIDPDDAMA”, for which the protein production entry was “not failed”.

On to “MSKVEQNAQHNIQQTSPNAAVQSGLQEWHRIIAEADWERLPDLLAEDVVFSNPSTFDPYHGKGPLMVILPAVFSVLENFQYARHFSSKSGYVLEFNANMGDELLTGVDLIEFNDAGKITDLVVMMRPASVVIDLSVEVGKRIAAAQS”, for which the protein production entry is listed as “not failed”.

For the sequence “MSKVIFALVLVVVLVACINATYVEFEEAYAPVDCKGQCTTPCEPLTACKEKCAESCETSADKKTCRRNCKKADCEPQDKVCDACRMKCHKACRAANCASECPKHEHKSDTCRACMKTNCK”, the protein production result is “not failed”.

Consider “MSKVLQISSAIPELDYANIPKEIIPFLASYNLIPQLLSQRIIESAIAPITCTQAEISHALDQFYQHWDLTTAEKIKDWCLRYGLNAEKLKLLATRKLRVEKFKQINWRHQLESYFLKRKKYLDRVIYSLIQTENKSVVNELFFRIAEGEDSFAELARKYSQGAEADRGGIIGPVELGSITPNFAQLLYTSQVGVVQPPVAFGNTWVIVRVEKLIPAQLDDFMRQRLLQENFEDWFQQQLNQLSPEEKIWMGINPKSDQVQEMA”, for which the protein production result is reported as “failed”.

Regarding “MSKVRIAIIGNGMVGHRFIEELLDKAPAGQFDITVFCEEPRIAYDRVHLSSYFSHHTAEELSLVREGFYEKHGVKVLVGERAITINRQEKVIHSSAGRTVFYDKLIMATGSYPWIPPIKGAETQDCFVYRTIEDLNAIESCARRSKRGAVVGGGLLGLEAAGALKNLGVETHVIEFAPMLMAEQLDQMGGEQLRRKIESMGVKVHTSKNTKEIVQQGTEARKTMHFADGSELQVDFIVFSTGIRPRDKLATQCGLAVAQRGGIMVNDSCQTSDPDIYAIGECASWNNRVYGLVAPGYKMAQVAVDHLLGSENSFTGADLSAKLKLLGVDVGGIGDAHGRTPGARSYVYLDESKEVYKRLIVSADNKTLLGAVLVGDTSDYGNLLQLVLNAIELPENPDSLILPAHAGSGKPSIGVDKLPDSAQICSCFDVSKGDLIAAINKGCHTVAALKAETKAGTGCGGCIPLVTQVLNAELAKQGIEVNNNLCEHFAYSRQELFHLIRVEGIKTFDELLEKHGQGYGCEVCKPTVGSLLASCWNEYILKPQHTPLQDSNDNFLANIQKDGTYSVIPRSAGGEITPEGLVAVGRIAREFNLYTKITGSQRIGLFGAQKDDLPEIWRQLIEAGFETGHAYAKALRMAKTCVGSTWCRYGVGDSVGFGVELENRYKGIRTPHKMKFGVSGCTRECAEAQGKDVGIIATEKGWNLYVCGNGGMKPRHADLLAADLDRETLIKYLDRFMMFYIRTADKLTRTAPWLDNMEGGIDYLRSVIIDDKLGLNDHLEEELARLRAAFACEWTETVNNPAAQTRFKHFINSDQRDPNVQVVPERDQHRPATPYERIPVTLVEEKA”, the protein production entry was “not failed”.

Consider “MSKVRVAGFSVSVDGFGAGPEQSLNDPLGKRGPEMFQWFFHTRTFRAMMGKDDGSTGIDEDYASRAMANFGAFILGRNMFGPIRGEWPDDAWKGWWGPNPPYHAPTYVLTHYPREPLVMEGGTTFHFVTGGIHQALDQAKAAAGDKDVKIGGGVATVRQYLQAGLIDELHFAVSPVVLGKGEAMFAGIDLPALDFRVTEHAASEKATHIVLAKLEHHHHHH”, for which the protein production result is “failed”.

Regarding “MSLAEKIKVLIVDDQVTSRLLLGDALQQLGFKQITAAGDGEQGMKIMAQNPHHLVISDFNMPKMDGLGLLQAVRANPATKKAAFIILTAQGDRALVQKAAALGANNVLAKPFTIEKMKAAIEAVFGALK”, the protein production entry was “not failed”.

On to “MSLAISITMETFYSLYPAVKHLHLTLIAVSVLFFVVRFVLHLRQSALMGKKVFKVAPHVIDTFLLLSGLVLCFMIKQYPFVDPWLTEKIGAVVAYIALGVIAIKANRNKLFKVFAFLGAIGWLVYAAKLAHFKQAVLLG”, for which the protein production entry is recorded as “failed”.

For “MSLALQYFKALSDETRLRLIHVLNRHELSVNELVSILEMGQSRVSRHLKILTGAGLLTSRRDGLWVFYSAAAEGDGRAFLDAVTPFVTTDMVLQADLDMAQKIIEERALKTRQFFNAIAEDWDELNREVLGGFDLAGAVAEAMPQCETAVDLGCGTGSVIERMLQRSQQVIGVDGSPRMLELARRRFVEGAERVSLRIGELDHLPLRDGEADFASINMVLHHLSDPGVALGEIRRVLRLGGQLMVTDFDRHDNERMRSDYGDRWLGFEGVQLEGLLREAGFTVRECRRQGVAKGLALHLMLAEKTQQ”, the protein production entry is recorded as “failed”.

On to “MSLANQTTKTLGLVMPSSASKAFQNPFFPEVIRGISSFAHVEGYALYMSTGETEEEIFNGVVKMVQGRQIGGIILLYSRENDRIIQYLHEQNFPFVLIGKPYDRKDEITYVDNDNYTAAREVAEYLISLGHKQIAFIGGGSDLLVTRDRLAGMSDALKLADIVLPKEYILHFDFSRESGQQAVEELMGLQQPPTAIMATDDLIGLGVLSALSKKGFVVPKDVSIVSFNNALLSEIASPPLSTVDVNIYQLGYEAAKALVDKVENAESTAKCIIIPHKLLKRQTCEGHHHHHH”, for which the protein production result is listed as “not failed”.

As to “MSLANRIRLHIWGDYACFTRPEMKVERVSYDVITPSAARGILSAIHWKPAINWVIDKIYVLKPIRFESVRRNELGAKISESKVSGAMKRKSVADLYTVIEDDRQQRAATVLKDVAYVIEAHAVMTSKAGVDENTTKHIEMFKRRALKGQCFQQPCMGVREFPAHFALIDDNDPLPLSQLSESEFNRDLGWMLHDIDFEHGNTPHFFRAELKNGVIDVPPFYAEEVKREGHHHHHH”, the protein production result is recorded as “not failed”.

Turning to “MSLAQADGIAFRELSFPEALKRAEVEDKLLFVDCFTTWCGPCKRLSKVVFKDSLVADYFNRHFVNLKMDMEKGEGVELRKKYGVHAYPTLLFINSSGEVVYRLVGAEDAPELLKKVKLGVESEGHHHHHH”, the protein production entry is “not failed”.

Consider “MSLCRLARKNIRTFATKRMKQFMWIAMSIMILFFMISLQFNEGAILKVGDAFVFQMYFYTLFIVLIFICIFTTYKMMYSLLLVRREEFTSYVAENIKRKEVLCLLCQEQLFIYGAAFVFGLVNGMLFLKLFTIIFIRIAGIQGINSAPITIYAIVVVSIIMIVILLLSMVQCFRFVQSLQDKNSLHFKKKA”, for which the protein production result was “failed”.

In the case of “MSLDFWLYKQAQQNGHHIAITDGQESYTYQNLYCEASLLAKRLKAYQQSRVGLYIDNSIQSIILIHACWLANIEIAMINTRLTPNEMTNQMRSIDVQLIFCTLPLELRGFQIVSLDDIEFAGRDITTNGLLDNTMGIQYDTSNETVVPKESPSNILNTSFNLDDIASIMFTSGTTGPQKAVPQTFRNHYASAIGCKESLGFDRDTNWLSVLPIYHISGLSVLLRAVIEGFTVRIVDKFNAEQILTMIKNERITHISLVPQTLNWLMQQGLHEPYNLQKILLGGAKLSATMIETALQYNLPIYNSFGMTETCSQFLTATPEMLHARPDTVGMPSANVDVKIKNPNKEGHGELMIKGANVMNGYLYPTDLTGTFENGYFNTGDIAEIDHEGYVMIYDRRKDLIISGGENIYPYQIETVAKQFPGISDAVCVGHPDDTWGQVPKLYFVSESDISKAQLIAYLSKHLAKYKVPKHFEKVDTLPYTSTGKLQRNKLYREGHHHHHH”, the protein production result is recorded as “not failed”.

For the sequence “MSLDKKLMPVPDGHPDVFDREWPLRVGDIDRAGRLRLDAACRHIQDIGQDQLREMGFEETHPLWIVRRTMVDLIRPIEFGDMLRCRRWCSGTSNRWCEMRVRVDGRKGGLIESEAFWIHVNRETEMPARIADDFLAGLHRTTSVDRLRWKGYLKPGSRDDASEIHEFPVRVTDIDLFDHMNNAVYWSVIEDYLASHAELLRGPLRVTIEHEAPVALGDKLEIISHVHPAGSTEIFGPGLVDRAVTTLTYVVGDEPKAVASLFNL”, the protein production entry is recorded as “failed”.

Take “MSLDNLDVICIGAAIVDIPLQPVSKNIFDVDSYPLERIAMTTGGDAINEATIISRLGHRTALMSRIGKDAAGQFILDHCRKENIDIQSLKQDVSIDTSINVGLVTEDGERTFVTNRNGSLWKLNIDDVDFARFSQAKLLSLASIFNSPLLDGKALTEIFTQAKARQMIICADMIKPRLNETLDDICEALSYVDYLFPNFAEAKLLTGKETLDEIADCFLACGVKTVVIKTGKDGCFIKRGDMTMKVPAVAGITAIDTIGAGDNFASGFIAALLEGKNLRECARFANATAAISVLSVGATTGVKNRKLVEQLLEEYEGEGHHHHHH”: the protein production entry was “not failed”.

Consider “MSLDSALRSRIETLLHSNRVVLFMKGRPGMPQCGFSAKAAGILQALGVEYAHVNVLDDQEIREGIKRYGDWPTIPQLYIDGELIGGSDIVSQMYENGELSTLLGVAAPDLTPPSITITPTAVEMLKGTLANAPGSTLALSIDSRFQPTFELAPINTQAIAAEYNGLRVQFDLASARRAEGITIDWVDDIRGQGLVIDNPNAPQPIQELSPGDAAAQVDAGVLTLVDVRPADERAVASVAVPFRTMDGGERAVLEQLPKGTPLAFLCHHGGRSLQAAEHFRSLGFTSIYNIGGGIDAWSTQVDPGVPKY”, for which the protein production entry is listed as “failed”.

For “MSLEAAGGIVWRWKAGSDIANDPAIASSKSAQEQLDSIEVCIVHRPKYDDWSWPKGKLEQNETHRHAAVREIGEETGSPVKLGPYLCEVEYPLSEEGKKTRHSHDCTADTKHTLYWMAQPISADDAEHLLDAFGPVHRADVGEINDIVWVSVREARKILSHSTDKDTLAVFVDRVQEGAATAQNLLIVRHAKAESRKSWKGTDANRPITPKGAAMAFALNRELACFNPTRLATSPWLRCQETLQVLSWQTERPMEHINTLTEDAFAEHPAVSWLAFREQITQTLNSRETTAICMHRPVIGGMYDHLRGLCARKQLAKQLIAKSPYMPTGTAMSLFIIDTPQGPSIIDIQKVSPIVYEGHHHHHH”, the protein production result was “not failed”.

For the sequence “MSLEGIKQINFQSINVVENLEEAKEGIPTIIMFKTDTCPYCVEMQKELSYVSKEREGKFNIYYARLEEEKNIDLAYKYDANIVPTTVFLDKEGNKFYVHQGLMRKNNIETILNSLGVKEGHHHHHH”, the protein production entry is on record as “not failed”.
